“And” between values parts separate entries of the source, which are not always exact repeats. Identical values can stand only once.

Experiment [1] has as its target T1, Lag3 on Lag3+ NFAT Jurkat effector cells (Promega #CS194801). Put plainly: cell-based or functional assay.
In experiment [2] the target is T1, Lag3 on Lag3+ NFAT Jurkat effector …. Put plainly: cell-based or functional assay. The source holds these as a separate data set.
For experiment [3], the target named is T2, murine LAG3-Fc antigen (R&D Systems, 3328-L3-050) (murine, UniProt Q61790 24-442).
T2 construct: Bought reagent
T2 sequence (looked up): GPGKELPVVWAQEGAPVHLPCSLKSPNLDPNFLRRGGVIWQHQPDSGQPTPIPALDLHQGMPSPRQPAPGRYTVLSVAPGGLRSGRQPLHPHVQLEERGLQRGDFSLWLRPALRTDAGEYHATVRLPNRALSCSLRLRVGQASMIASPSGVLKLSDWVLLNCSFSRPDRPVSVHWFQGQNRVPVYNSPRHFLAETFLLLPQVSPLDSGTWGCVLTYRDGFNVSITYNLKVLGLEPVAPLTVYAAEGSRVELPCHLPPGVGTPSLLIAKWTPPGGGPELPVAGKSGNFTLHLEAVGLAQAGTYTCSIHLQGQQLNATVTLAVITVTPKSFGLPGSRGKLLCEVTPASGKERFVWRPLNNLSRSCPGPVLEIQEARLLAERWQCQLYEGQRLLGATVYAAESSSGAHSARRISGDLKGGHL
Put plainly: ELISA using murine LAG3-Fc antigen. For orientation: An ELISA detects its analyte on a solid surface through an enzyme-linked reagent.

In experiment [4] the target is T3, human LAG3 on recombinant CHO cells (human, UniProt P18627 23-525).
T3 construct: whole, on cells; also called Lag3 cells; recombinant CHO cells expressing Lag3
T3 sequence (looked up): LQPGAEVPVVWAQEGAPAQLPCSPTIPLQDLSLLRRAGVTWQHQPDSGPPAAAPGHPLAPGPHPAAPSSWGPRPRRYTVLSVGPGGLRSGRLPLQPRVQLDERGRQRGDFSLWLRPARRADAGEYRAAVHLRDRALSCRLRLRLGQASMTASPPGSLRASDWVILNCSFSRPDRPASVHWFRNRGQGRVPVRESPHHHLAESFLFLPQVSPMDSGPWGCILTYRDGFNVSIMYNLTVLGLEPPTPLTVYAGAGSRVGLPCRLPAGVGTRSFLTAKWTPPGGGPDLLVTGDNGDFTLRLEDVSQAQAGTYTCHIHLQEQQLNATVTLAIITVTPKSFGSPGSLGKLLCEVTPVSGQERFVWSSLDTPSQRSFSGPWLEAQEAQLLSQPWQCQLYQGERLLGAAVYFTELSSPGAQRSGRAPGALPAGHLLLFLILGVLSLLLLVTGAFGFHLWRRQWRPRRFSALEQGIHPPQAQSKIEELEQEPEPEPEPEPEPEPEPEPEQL
The experiment is described as follows: cell ELISA on CHO cells expressing human LAG3.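 Also: bivalent Fc-format binders titrated in threefold steps from 6 µg/mL, incubated with the cells 2 h at 4 °C, bound antibody detected by HRP-coupled anti-human IgG.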

In experiment [5] the target is T4, recombinant human LAG3 Fc Chimera Protein (R&D Systems, 2319-L3) (human, UniProt P18627 23-450).
T4 construct: Bought reagent
T4 sequence (looked up): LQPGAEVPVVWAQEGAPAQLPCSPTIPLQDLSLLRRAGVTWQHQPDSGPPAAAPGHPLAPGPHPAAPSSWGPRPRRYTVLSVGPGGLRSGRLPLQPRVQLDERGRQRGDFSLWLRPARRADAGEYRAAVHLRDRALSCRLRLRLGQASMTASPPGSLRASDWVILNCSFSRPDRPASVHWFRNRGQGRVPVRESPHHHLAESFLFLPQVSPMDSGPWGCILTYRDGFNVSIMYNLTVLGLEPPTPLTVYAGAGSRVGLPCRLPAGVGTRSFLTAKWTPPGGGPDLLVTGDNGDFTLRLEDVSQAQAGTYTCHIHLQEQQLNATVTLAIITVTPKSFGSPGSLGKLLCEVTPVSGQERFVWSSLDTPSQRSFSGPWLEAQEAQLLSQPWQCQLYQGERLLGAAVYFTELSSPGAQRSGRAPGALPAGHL
The experiment is described as follows: ELISA, plate coated with human LAG3 Fc chimera.

Experiment [6] deals with T5, cynomolgus LAG3 on transiently transfected HEK293F cells (cynomolgus).
T5 construct: whole, on cells; also called cyno LAG3; cynomolgus Lag3-positive HEK cells
Put plainly: flow cytometry on HEK293F cells transfected with cyno LAG3, 10 µg/ml.

The target of experiment [7] is T4, recombinant human LAG3 Fc Chimera …. Put plainly: SPR (Biacore), aVH-Fc captured by anti-human Fc, human LAG-3 Fc chimera as analyte, 25 C. Background: In SPR one partner is held on a chip, and binding of the other changes the refractive index at the surface.
The target in experiment [8] is T6, soluble human Lag3-IgG1-Fc with biotinylated C-terminal Avi-tag (human, biotin on the C-terminal Avi-tag).
T6 construct: also called LAG3-Fc-avi; biotinylated LAG3-Fc antigen
Put plainly: A375 MHCII competition ELISA, biotinylated Lag3 250 ng/ml; competitor MHCII on A375 cells.

Experiment [9] concerns the target T6, soluble human Lag3-IgG1-Fc with …. The experiment is described as follows: A375 MHCII competition ELISA at 3 µg/ml, biotinylated Lag3 250 ng/ml; competitor MHCII on A375 cells.
The target in experiment [10] is T7, Lag3 on cynomolgus PBMC/T cells (cynomolgus).
T7 construct: whole, on cells
The experiment is described as follows: flow cytometry, non-activated cynomolgus PBMC, 10 µg/ml. A general note: Flow cytometry measures light scatter and fluorescence of single cells or particles in a stream.

The target of experiment [11] is T7, Lag3 on cynomolgus PBMC/T cells. The experiment is described as follows: flow cytometry, CD3/CD28-activated cynomolgus PBMC, 10 µg/ml.

B1: bivalent 21B11 aVH-Fc (Fc fusion)
chain: EVQLVESGGGLVQPGGSLRLSCAASGFNIKDTCIGWVRRAPGKGTELVAEICQDIGYTRYADSVKGRFTISADTSKNTAYLQMNSLRAEDTAVYYCAADESVDNFKYWGQGTTVTVSSGGGGSGGGGSDKTHTCPPCPAPEAAGGPSVFLFPPKPKDTLMISRTPEVTCVVVDVSHEDPEVKFNWYVDGVEVHNAKTKPREEQYNSTYRVVSVLTVLHQDWLNGKEYKCKVSNKALGAPIEKTISKAKGQPREPQVYTLPPSRDELTKNQVSLTCLVKGFYPSDIAVEWESNGQPENNYKTTPPVLDSDGSFFLYSKLTVDKSRWQQGNVFSCSVMHEALHNHYTQKSLSLSPGK
With B1, the “EC50 of restoration of the NFAT luciferase signal (NFAT Lag3 reporter assay: Lag3+ Jurkat, Raji cells, SED)” value in [1] was determined as 0.6 µg/mL. Also, in experiment [2], the “IC50 for near-complete reduction of luciferase activity (modified NFAT Lag3 reporter assay, Lag3+ Jurkat cells alone)” value came out at 0.064 µg/mL. The binding result in experiment [3] is “no binding”. Also, in [4], the EC50 is 0.0428 µg/mL and 0.6 nM; the OD max amounted to 1.3 OD. Moreover, in experiment [5], the EC50 was 0.0157 µg/mL and 0.2 nM; the OD max was 1.1 OD. In [6], the “LAG3 positive cells (%)” value amounted to 78.9% and the “Signal intensity (Geo Mean)” value turned out to be 2750 Geo Mean. Moreover, in [7], the koff was determined as 1.8e-05 s⁻¹ and the t1/2 stood at 1.78 h. In addition, in experiment [8], the half-inhibitory concentration (IC50) is 0.113 µg/mL and 1.5 nM. Also, the “% Inhibition” value in [9] was 96.7%.

B2: bivalent P21A03 aVH-Fc (Fc fusion)
chain: EVQLVESGGGLVQPGGSLRLSCAASGFNIKDTCIGWVRRAPGKGTELVAEICEDIGYTRYADSVKGRFTISADTSKNTAYLQMNSLRAEDTAVYYCAANEHSVGFNYWGQGTTVTVSSGGGGSGGGGSDKTHTCPPCPAPEAAGGPSVFLFPPKPKDTLMISRTPEVTCVVVDVSHEDPEVKFNWYVDGVEVHNAKTKPREEQYNSTYRVVSVLTVLHQDWLNGKEYKCKVSNKALGAPIEKTISKAKGQPREPQVYTLPPSRDELTKNQVSLTCLVKGFYPSDIAVEWESNGQPENNYKTTPPVLDSDGSFFLYSKLTVDKSRWQQGNVFSCSVMHEALHNHYTQKSLSLSPGK
For B2, the “EC50 of restoration of the NFAT luciferase signal (NFAT Lag3 reporter assay: Lag3+ Jurkat, Raji cells, SED)” value in [1] is 3.31 µg/mL. Moreover, the “IC50 for near-complete reduction of luciferase activity (modified NFAT Lag3 reporter assay, Lag3+ Jurkat cells alone)” value in experiment [2] was 0.078 µg/mL. Moreover, the binding result in experiment [3] is on record as “no binding”. In addition, in [4], the EC50 was 0.0401 µg/mL and 0.5 nM; the OD max came to 1.2 OD. In experiment [5], the concentration for a half-maximal effect (EC50) is 0.0901 µg/mL and 1.2 nM; the OD max came out at 1.8 OD. In addition, the “Percentage of Lag3 positive cells” value in experiment [10] stood at 20.8%. The “Percentage of Lag3 positive cells” value in experiment [11] turned out to be 52.2%. Moreover, in [7], the koff came to 1e-05 s⁻¹ and the t1/2 amounted to 19.3 h. In experiment [8], the half-maximal inhibitory concentration (IC50) is 0.0581 µg/mL and 0.8 nM. The “% Inhibition” value in [9] was determined as 97.4%.

B3: bivalent 19G3 aVH-Fc (Fc fusion)
chain: EVQLVESGGGLVQPGGSLRLSCAASGFNIKYQCIGWVRRAPGKGTELVAEICSYDGYTRYADSVKGRFTISADTSKNTAYLQMNSLRAEDTAVYYCAAEESVEGFIYWGQGTTVTVSSGGGGSGGGGSDKTHTCPPCPAPEAAGGPSVFLFPPKPKDTLMISRTPEVTCVVVDVSHEDPEVKFNWYVDGVEVHNAKTKPREEQYNSTYRVVSVLTVLHQDWLNGKEYKCKVSNKALGAPIEKTISKAKGQPREPQVYTLPPSRDELTKNQVSLTCLVKGFYPSDIAVEWESNGQPENNYKTTPPVLDSDGSFFLYSKLTVDKSRWQQGNVFSCSVMHEALHNHYTQKSLSLSPGK
As to B3, the binding result in experiment [3] is “no binding”. Moreover, in experiment [4], the EC50 was 0.0636 µg/mL and 0.8 nM; the OD max stood at 1.3 OD. In [5], the concentration giving a half-maximal response (EC50) is 0.0342 µg/mL and 0.5 nM; the OD max was determined as 1 OD. The “Percentage of Lag3 positive cells” value in experiment [10] turned out to be 17%. For the same molecule, the “Percentage of Lag3 positive cells” value in experiment [11] was determined as 54.3%. Moreover, in [6], the “LAG3 positive cells (%)” value was 80.3% and the “Signal intensity (Geo Mean)” value is 2560 Geo Mean. In experiment [7], the off-rate constant (koff) came to 0.00029 s⁻¹ and the t1/2 was determined as 0.672 h. Further, the concentration for half-maximal inhibition (IC50) in [8] was 0.224 µg/mL and 3 nM. For the same molecule, in experiment [9], the “% Inhibition” value came to 91.9%.

One may read the EC50 as the concentration needed to bring the measured effect to its halfway point. Broadly, the koff is the first-order rate constant of dissociation. As usually defined, the IC50 is the point on the concentration scale where inhibition reaches its midpoint. Low readings indicate greater potency in that assay, high ones weaker potency in that assay. The % Inhibition is how much of the control response was suppressed. Low readings indicate a weak effect, high ones a strong effect.

The values are drawn from US20200354457A1 (Hoffmann-La Roche, published 2020).
